# Patent US20240010753A1 (EPIMAB BIOTHERAPEUTICS HK, published 2024)
# Molecular target: T1, recombinant human ROR1-ECD protein (human, UniProt Q01973 30-406)
# T1 construct: also called human ROR1 extracellular domain
# Test: BLI (Octet RED96), FIT-Ig captured on anti-hIgG Fc sensors, ROR1 ECD at 10 ug/ml; off-rate relative to FIT1007-12B
# Experimental: The ROR1/CD3 FIT-Ig proteins were assayed for and ranked by dissociation rate constant (koff, “off-rate”) using an Octet®RED96 biolayer interferometry (Pall FortéBio LLC). Anti-hIgG Fc Capture (AHC) Biosensors (Pall) were first exposed to antibody at a concentration of 100 nM for 30 seconds to capture antibody, then dipped into running buffer (1× pH 7.2 PBS, 0.05% Tween 20, 0.1% BSA) for 60 seconds to check baseline. Sensors with captured antibody were dipped into recombinant human ROR1 ECD protein at 10 ug/ml for 5 minutes to measure association, followed by dipped into running buffer for 1200 seconds to measure dissociation. The association and dissociation curves were fitted to a 1:1 Langmuir binding model using ForteBio Data Analysis software (Pall). The off-rate ratios were calculated by the off-rate of antibody to that of FIT1007-12B. Lower ratio indicates slower dissociation of the antibody in comparison with the parental chimeric antibody FIT1007-12B.
# T1 sequence (Q01973 30-406): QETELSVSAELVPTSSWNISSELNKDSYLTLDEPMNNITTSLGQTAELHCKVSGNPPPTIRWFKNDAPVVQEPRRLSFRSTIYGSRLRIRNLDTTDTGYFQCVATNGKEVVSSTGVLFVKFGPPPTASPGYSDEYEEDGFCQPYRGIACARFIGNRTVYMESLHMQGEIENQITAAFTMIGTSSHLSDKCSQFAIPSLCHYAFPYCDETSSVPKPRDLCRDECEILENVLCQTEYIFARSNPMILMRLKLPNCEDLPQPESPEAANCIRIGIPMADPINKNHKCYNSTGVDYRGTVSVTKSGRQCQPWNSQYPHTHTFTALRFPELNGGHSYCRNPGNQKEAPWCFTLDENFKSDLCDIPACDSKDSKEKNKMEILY
row,Binder,Off-rate Ratio [%]
1,"FIT1007-12B-13 (bispecific antibody, human IgG1, kappa, L234A L235A, Chimeric ROR1 arm with CDR-H2 point mutations (AA); ROR1xCD3 FIT-Ig, no linkers) chain 1: not shown chain 2: QVQLQQSGPELVKPGASVKISCKASGYAFSRSWMNWVKQRPEKGLEWIGRIYPGNADIKYNANFKGKATLTADKSSSTAYMQLSSLTSEDSAVYFCAHIYYDFYYALDYWGQGTSVTVSSASTKGPSVFPLAPSSKSTSGGTAALGCLVKDYFPEPVTVSWNSGALTSGVHTFPAVLQSSGLYSLSSVVTVPSSSLGTQTYICNVNHKPSNTKVDKKVEPKSC chain 3: not shown",89.1
2,"FIT1007-12B-16 (bispecific antibody, human IgG1, kappa, L234A L235A, Chimeric ROR1 arm with CDR-H2 point mutations (QA); ROR1xCD3 FIT-Ig, no linkers) chain 1: not shown chain 2: QVQLQQSGPELVKPGASVKISCKASGYAFSRSWMNWVKQRPEKGLEWIGRIYPGQGDIKYNANFKGKATLTADKSSSTAYMQLSSLTSEDSAVYFCAHIYYDFYYALDYWGQGTSVTVSSASTKGPSVFPLAPSSKSTSGGTAALGCLVKDYFPEPVTVSWNSGALTSGVHTFPAVLQSSGLYSLSSVVTVPSSSLGTQTYICNVNHKPSNTKVDKKVEPKSC chain 3: not shown",139
3,"FIT1007-12B-5 (bispecific antibody, human IgG1, kappa, L234A L235A, ROR1xCD3 FIT-Ig, same build as FIT1007-12B-1, no linkers) chain 1: not shown chain 2: EVQLVQSGAEVKKPGSSVKVSCKASGYTFSRSWMNWVRQAPGQGLEWIGRIYPGNGDIKYNGNFKGRATITADKSTSTAYMELSSLRSEDTAVYYCAHIYYDFYYALDYWGQGTTVTVSSASTKGPSVFPLAPSSKSTSGGTAALGCLVKDYFPEPVTVSWNSGALTSGVHTFPAVLQSSGLYSLSSVVTVPSSSLGTQTYICNVNHKPSNTKVDKKVEPKSC chain 3: not shown",28.5
4,"FIT1007-12B-6 (bispecific antibody, human IgG1, kappa, L234A L235A, ROR1xCD3 FIT-Ig, same build as FIT1007-12B-1, no linkers) chain 1: not shown chain 2: EVQLVQSGAEVKKPGSSVKVSCKASGYTFSRSWMNWVKQAPGQGLEWIGRIYPGNGDIKYNGNFKGKATITADKSTSTAYMELSSLRSEDTAVYYCAHIYYDFYYALDYWGQGTTVTVSSASTKGPSVFPLAPSSKSTSGGTAALGCLVKDYFPEPVTVSWNSGALTSGVHTFPAVLQSSGLYSLSSVVTVPSSSLGTQTYICNVNHKPSNTKVDKKVEPKSC chain 3: not shown",25.8
5,"FIT1007-12B-12 (bispecific antibody, human IgG1, kappa, L234A L235A, ROR1xCD3 FIT-Ig, same build as FIT1007-12B-1, no linkers) chain 1: not shown chain 2: EVQLVQSGAEVKKPGSSVKVSCKASGYTFSRSWMNWVKQAPGQGLEWIGRIYPGNGDIKYNGNFKGKATITADKSTSTAYMELSSLRSEDTAVYYCAHIYYDFYYALDYWGQGTTVTVSSASTKGPSVFPLAPSSKSTSGGTAALGCLVKDYFPEPVTVSWNSGALTSGVHTFPAVLQSSGLYSLSSVVTVPSSSLGTQTYICNVNHKPSNTKVDKKVEPKSC chain 3: not shown",25.2
6,"FIT1007-12B-11 (bispecific antibody, human IgG1, kappa, L234A L235A, ROR1xCD3 FIT-Ig, same build as FIT1007-12B-1, no linkers) chain 1: not shown chain 2: EVQLVQSGAEVKKPGSSVKVSCKASGYTFSRSWMNWVRQAPGQGLEWIGRIYPGNGDIKYNGNFKGRATITADKSTSTAYMELSSLRSEDTAVYYCAHIYYDFYYALDYWGQGTTVTVSSASTKGPSVFPLAPSSKSTSGGTAALGCLVKDYFPEPVTVSWNSGALTSGVHTFPAVLQSSGLYSLSSVVTVPSSSLGTQTYICNVNHKPSNTKVDKKVEPKSC chain 3: not shown",28.9
7,"FIT1007-12B-10 (bispecific antibody, human IgG1, kappa, L234A L235A, ROR1xCD3 FIT-Ig, same build as FIT1007-12B-1, no linkers) chain 1: not shown chain 2: EVQLVQSGAEVKKPGSSVKVSCKASGYTFSRSWMNWVRQAPGQGLEWMGRIYPGNGDIKYNGNFKGRVTITADKSTSTAYMELSSLRSEDTAVYYCAHIYYDFYYALDYWGQGTTVTVSSASTKGPSVFPLAPSSKSTSGGTAALGCLVKDYFPEPVTVSWNSGALTSGVHTFPAVLQSSGLYSLSSVVTVPSSSLGTQTYICNVNHKPSNTKVDKKVEPKSC chain 3: not shown",36.7
8,"FIT1007-12B-9 (bispecific antibody, human IgG1, kappa, L234A L235A, ROR1xCD3 FIT-Ig, same build as FIT1007-12B-1, no linkers) chain 1: not shown chain 2: EVQLVQSGAEVKKPGSSVKVSCKASGYTFSRSWMNWVKQAPGQGLEWIGRIYPGNGDIKYNGNFKGKATITADKSTSTAYMELSSLRSEDTAVYYCAHIYYDFYYALDYWGQGTTVTVSSASTKGPSVFPLAPSSKSTSGGTAALGCLVKDYFPEPVTVSWNSGALTSGVHTFPAVLQSSGLYSLSSVVTVPSSSLGTQTYICNVNHKPSNTKVDKKVEPKSC chain 3: not shown",12
9,"FIT1007-12B-3 (bispecific antibody, human IgG1, kappa, L234A L235A, ROR1xCD3 FIT-Ig, same build as FIT1007-12B-1, no linkers) chain 1: not shown chain 2: EVQLVQSGAEVKKPGSSVKVSCKASGYTFSRSWMNWVKQAPGQGLEWIGRIYPGNGDIKYNGNFKGKATITADKSTSTAYMELSSLRSEDTAVYYCAHIYYDFYYALDYWGQGTTVTVSSASTKGPSVFPLAPSSKSTSGGTAALGCLVKDYFPEPVTVSWNSGALTSGVHTFPAVLQSSGLYSLSSVVTVPSSSLGTQTYICNVNHKPSNTKVDKKVEPKSC chain 3: not shown",11.9
10,"FIT1007-12B-7 (bispecific antibody, human IgG1, kappa, L234A L235A, ROR1xCD3 FIT-Ig, same build as FIT1007-12B-1, no linkers) chain 1: not shown chain 2: EVQLVQSGAEVKKPGSSVKVSCKASGYTFSRSWMNWVRQAPGQGLEWMGRIYPGNGDIKYNGNFKGRVTITADKSTSTAYMELSSLRSEDTAVYYCAHIYYDFYYALDYWGQGTTVTVSSASTKGPSVFPLAPSSKSTSGGTAALGCLVKDYFPEPVTVSWNSGALTSGVHTFPAVLQSSGLYSLSSVVTVPSSSLGTQTYICNVNHKPSNTKVDKKVEPKSC chain 3: not shown",13.6
11,"FIT1007-12B-8 (bispecific antibody, human IgG1, kappa, L234A L235A, ROR1xCD3 FIT-Ig, same build as FIT1007-12B-1, no linkers) chain 1: not shown chain 2: EVQLVQSGAEVKKPGSSVKVSCKASGYTFSRSWMNWVRQAPGQGLEWIGRIYPGNGDIKYNGNFKGRATITADKSTSTAYMELSSLRSEDTAVYYCAHIYYDFYYALDYWGQGTTVTVSSASTKGPSVFPLAPSSKSTSGGTAALGCLVKDYFPEPVTVSWNSGALTSGVHTFPAVLQSSGLYSLSSVVTVPSSSLGTQTYICNVNHKPSNTKVDKKVEPKSC chain 3: not shown",15.4
12,"FIT1007-12B-2 (bispecific antibody, human IgG1, kappa, L234A L235A, ROR1xCD3 FIT-Ig, same build as FIT1007-12B-1, no linkers) chain 1: not shown chain 2: EVQLVQSGAEVKKPGSSVKVSCKASGYTFSRSWMNWVRQAPGQGLEWIGRIYPGNGDIKYNGNFKGRATITADKSTSTAYMELSSLRSEDTAVYYCAHIYYDFYYALDYWGQGTTVTVSSASTKGPSVFPLAPSSKSTSGGTAALGCLVKDYFPEPVTVSWNSGALTSGVHTFPAVLQSSGLYSLSSVVTVPSSSLGTQTYICNVNHKPSNTKVDKKVEPKSC chain 3: not shown",7.87
13,"FIT1007-12B-1 (bispecific antibody, human IgG1, kappa, L234A L235A, ROR1xCD3 FIT-Ig, chain #1 VL(ROR1)-CL-VH(CD3)-CH1-hinge-CH2-CH3, chain #2 VH(ROR1)-CH1, chain #3 VL(CD3)-CL, no linkers) chain 1: not shown chain 2: EVQLVQSGAEVKKPGSSVKVSCKASGYTFSRSWMNWVRQAPGQGLEWMGRIYPGNGDIKYNGNFKGRVTITADKSTSTAYMELSSLRSEDTAVYYCAHIYYDFYYALDYWGQGTTVTVSSASTKGPSVFPLAPSSKSTSGGTAALGCLVKDYFPEPVTVSWNSGALTSGVHTFPAVLQSSGLYSLSSVVTVPSSSLGTQTYICNVNHKPSNTKVDKKVEPKSC chain 3: not shown",5.25
14,"FIT1007-12B-4 (bispecific antibody, human IgG1, kappa, L234A L235A, ROR1xCD3 FIT-Ig, same build as FIT1007-12B-1, no linkers) chain 1: not shown chain 2: EVQLVQSGAEVKKPGSSVKVSCKASGYTFSRSWMNWVRQAPGQGLEWMGRIYPGNGDIKYNGNFKGRVTITADKSTSTAYMELSSLRSEDTAVYYCAHIYYDFYYALDYWGQGTTVTVSSASTKGPSVFPLAPSSKSTSGGTAALGCLVKDYFPEPVTVSWNSGALTSGVHTFPAVLQSSGLYSLSSVVTVPSSSLGTQTYICNVNHKPSNTKVDKKVEPKSC chain 3: not shown",35.9
